{"source": "patent US20180044374A1", "key": {"[1]": {"target": "human polyclonal IgG (Gammanorm) (human)", "test": "dynamic binding capacity; matrix A40, ligand 13.2 mg/ml"}, "[2]": {"target": "human polyclonal IgG (Gammanorm) (human)", "test": "dynamic binding capacity; ligand 20 mg/ml, before 1 M NaOH"}, "[3]": {"target": "human polyclonal IgG (Gammanorm) (human)", "test": "dynamic binding capacity; matrix H40, ligand 9.1 mg/ml"}, "[4]": {"target": "human polyclonal IgG (Gammanorm) (human)", "test": "dynamic binding capacity; matrix A65a, ligand 6.1 mg/ml"}, "[5]": {"target": "human polyclonal IgG (Gammanorm) (human)", "test": "dynamic binding capacity; matrix A39, ligand 10.48 mg/ml"}, "[6]": {"target": "human polyclonal IgG (Gammanorm) (human)", "test": "dynamic binding capacity; matrix A39, ligand 6.96 mg/ml"}, "[7]": {"target": "human polyclonal IgG (Gammanorm) (human)", "test": "dynamic binding capacity; matrix A62b, ligand […]", "settings": "ligand content 5.2 mg/ml"}, "[8]": {"target": "human polyclonal IgG (Gammanorm) (human)", "test": "dynamic binding capacity; matrix A62a, ligand 6.6 mg/ml"}, "[9]": {"target": "human polyclonal IgG (Gammanorm) (human)", "test": "dynamic binding capacity; matrix A62a, ligand 6.4 mg/ml"}, "[10]": {"target": "human polyclonal IgG (Gammanorm) (human)", "test": "dynamic binding capacity; matrix A65b, ligand 8.8 mg/ml"}, "[11]": {"target": "human polyclonal IgG (Gammanorm) (human)", "test": "dynamic binding capacity; matrix A38, ligand 7.5 mg/ml"}, "[12]": {"target": "human polyclonal IgG (Gammanorm) (human)", "test": "dynamic binding capacity; matrix A43, ligand 10.51 mg/ml"}, "[13]": {"target": "human polyclonal IgG (Gammanorm) (human)", "test": "dynamic binding capacity; matrix A65a, ligand 6.6 mg/ml"}, "[14]": {"target": "human polyclonal IgG (Gammanorm) (human)", "test": "dynamic binding capacity; matrix A18, ligand 13.4 mg/ml"}, "[15]": {"target": "human polyclonal IgG (Gammanorm) (human)", "test": "dynamic binding capacity; matrix A33, ligand 7.3 mg/ml"}, "[16]": {"target": "human polyclonal IgG (Gammanorm) (human)", "test": "dynamic binding capacity; matrix H40, ligand […]"}, "[17]": {"target": "human polyclonal IgG (Gammanorm) (human)", "test": "dynamic binding capacity; matrix C1, ligand 10.8 mg/ml"}, "[18]": {"target": "human polyclonal IgG (Gammanorm) (human)", "test": "dynamic binding capacity; ligand 12 mg/ml, before 1 M NaOH"}, "[19]": {"target": "human polyclonal IgG (Gammanorm) (human)", "test": "dynamic binding capacity; matrix A63a, ligand 6.1 mg/ml"}, "[20]": {"target": "human polyclonal IgG (Gammanorm) (human)", "test": "dynamic binding capacity; matrix C1, ligand […]"}, "[21]": {"target": "human polyclonal IgG (Gammanorm) (human)", "test": "dynamic binding capacity; matrix A62a, ligand 9.7 mg/ml"}, "[22]": {"target": "human polyclonal IgG (Gammanorm) (human)", "test": "dynamic binding capacity; matrix A28, ligand 7.9 mg/ml"}, "[23]": {"target": "human polyclonal IgG (Gammanorm) (human)", "test": "dynamic binding capacity; matrix A39, ligand 10.5 mg/ml"}, "[24]": {"target": "human polyclonal IgG (Gammanorm) (human)", "test": "dynamic binding capacity; matrix A40, ligand 11.0 mg/ml"}, "[25]": {"target": "human polyclonal IgG (Gammanorm) (human)", "test": "dynamic binding capacity; matrix A32, ligand 13.3 mg/ml"}, "[26]": {"target": "human polyclonal IgG (Gammanorm) (human)", "test": "dynamic binding capacity; matrix A27, ligand […]"}, "[27]": {"target": "human polyclonal IgG (Gammanorm) (human)", "test": "dynamic binding capacity; matrix A20, ligand 10.6 mg/ml"}, "[28]": {"target": "human polyclonal IgG (Gammanorm) (human)", "test": "dynamic binding capacity; matrix A28, ligand 11.9 mg/ml"}, "[29]": {"target": "human polyclonal IgG (Gammanorm) (human)", "test": "dynamic binding capacity; matrix A42, ligand 6.72 mg/ml"}, "[30]": {"target": "human polyclonal IgG (Gammanorm) (human)", "test": "dynamic binding capacity; matrix A40, ligand 11.03 mg/ml"}, "[31]": {"target": "human polyclonal IgG (Gammanorm) (human)", "test": "dynamic binding capacity; matrix A65a, ligand 13.1 mg/ml"}, "[32]": {"target": "human polyclonal IgG (Gammanorm) (human)", "test": "dynamic binding capacity; matrix C2, ligand 10.5 mg/ml"}, "[33]": {"target": "human polyclonal IgG (Gammanorm) (human)", "test": "dynamic binding capacity; matrix C3, ligand 9.0 mg/ml"}, "[34]": {"target": "human polyclonal IgG (Gammanorm) (human)", "test": "dynamic binding capacity; matrix A62a, ligand 7.5 mg/ml"}, "[35]": {"target": "human polyclonal IgG (Gammanorm) (human)", "test": "dynamic binding capacity; matrix I1, ligand 6.1 mg/ml"}, "[36]": {"target": "human polyclonal IgG (Gammanorm) (human)", "test": "dynamic binding capacity; matrix A27, ligand 7.5 mg/ml"}, "[37]": {"target": "human polyclonal IgG (Gammanorm) (human)", "test": "dynamic binding capacity; ligand 16 mg/ml, before 1 M NaOH"}, "[38]": {"target": "human polyclonal IgG (Gammanorm) (human)", "test": "dynamic binding capacity; matrix A65b, ligand […]"}}, "note": "Several values for one entry are separate records, joined by “and”; a condition that tells them apart may be missing. Equal entries are not always repeated.", "data": [{"substance": "Zvar(Q9A, N11E, Q40V, A42K, N43A, L44I)4 (designed binder)", "values": [{"measurement": "Qb10% 2.4 min", "setting": "[1]", "result": 57, "unit": "mg/mL"}, {"measurement": "Qb10% 6 min", "setting": "[1]", "result": 71, "unit": "mg/mL"}, {"measurement": "Qb10%, 6 min, before incubation", "setting": "[2]", "result": 73, "unit": "mg/mL"}, {"measurement": "Qb10% 2.4 min", "setting": "[3]", "result": 52, "unit": "mg/mL"}, {"measurement": "Qb10% 6 min", "setting": "[3]", "result": 67, "unit": "mg/mL"}, {"measurement": "Qb10% 2.4 min", "setting": "[4]", "result": 40, "unit": "mg/mL"}, {"measurement": "Qb10% 6 min", "setting": "[4]", "result": 44, "unit": "mg/mL"}, {"measurement": "Qb10% 2.4 min", "setting": "[5]", "result": 44.4, "unit": "mg/mL"}, {"measurement": "Qb10% 6 min", "setting": "[5]", "result": 64.8, "unit": "mg/mL"}, {"measurement": "Qb10% 2.4 min", "setting": "[6]", "result": 41.9, "unit": "mg/mL"}, {"measurement": "Qb10% 6 min", "setting": "[6]", "result": 54.7, "unit": "mg/mL"}, {"measurement": "Qb10% 2.4 min", "setting": "[7]", "result": 40, "unit": "mg/mL"}, {"measurement": "Qb10% 2.4 min", "setting": "[8]", "result": 41, "unit": "mg/mL"}, {"measurement": "Qb10% 6 min", "setting": "[8]", "result": 46, "unit": "mg/mL"}, {"measurement": "Qb10% 2.4 min", "setting": "[9]", "result": 43, "unit": "mg/mL"}, {"measurement": "Qb10% 6 min", "setting": "[9]", "result": 45, "unit": "mg/mL"}, {"measurement": "Qb10% 2.4 min", "setting": "[10]", "result": 49, "unit": "mg/mL"}, {"measurement": "Qb10% 6 min", "setting": "[10]", "result": 56, "unit": "mg/mL"}, {"measurement": "Qb10% 2.4 min", "setting": "[11]", "result": 44, "unit": "mg/mL"}, {"measurement": "Qb10% 6 min", "setting": "[11]", "result": 58, "unit": "mg/mL"}, {"measurement": "Qb10% 2.4 min", "setting": "[12]", "result": 31.8, "unit": "mg/mL"}, {"measurement": "Qb10% 6 min", "setting": "[12]", "result": 58, "unit": "mg/mL"}, {"measurement": "Qb10% 2.4 min", "setting": "[13]", "result": 42, "unit": "mg/mL"}, {"measurement": "Qb10% 6 min", "setting": "[13]", "result": 47, "unit": "mg/mL"}, {"measurement": "Qb10% 6 min", "setting": "[14]", "result": 63, "unit": "mg/mL"}, {"measurement": "Qb10% 2.4 min", "setting": "[15]", "result": 49, "unit": "mg/mL"}, {"measurement": "Qb10% 6 min", "setting": "[15]", "result": 56, "unit": "mg/mL"}, {"measurement": "Qb10% 2.4 min", "setting": "[16]", "result": 47, "unit": "mg/mL"}, {"measurement": "Qb10% 6 min", "setting": "[16]", "result": 52, "unit": "mg/mL"}, {"measurement": "Qb10% 2.4 min", "setting": "[17]", "result": 43, "unit": "mg/mL"}, {"measurement": "Qb10% 6 min", "setting": "[17]", "result": 60, "unit": "mg/mL"}, {"measurement": "Qb10%, 6 min, before incubation", "setting": "[18]", "result": 78, "unit": "mg/mL"}, {"measurement": "Qb10% 2.4 min", "setting": "[19]", "result": 39, "unit": "mg/mL"}, {"measurement": "Qb10% 6 min", "setting": "[19]", "result": 44, "unit": "mg/mL"}, {"measurement": "Qb10% 2.4 min", "setting": "[20]", "result": 38, "unit": "mg/mL"}, {"measurement": "Qb10% 6 min", "setting": "[20]", "result": 47, "unit": "mg/mL"}, {"measurement": "Qb10% 2.4 min", "setting": "[21]", "result": 48, "unit": "mg/mL"}, {"measurement": "Qb10% 6 min", "setting": "[21]", "result": 60, "unit": "mg/mL"}, {"measurement": "Qb10% 2.4 min", "setting": "[22]", "result": "42.4 mg/mL and 42 mg/mL"}, {"measurement": "Qb10% 6 min", "setting": "[22]", "result": "58.2 mg/mL and 58 mg/mL"}, {"measurement": "Qb10% 2.4 min", "setting": "[23]", "result": 44, "unit": "mg/mL"}, {"measurement": "Qb10% 6 min", "setting": "[23]", "result": 65, "unit": "mg/mL"}, {"measurement": "Qb10% 2.4 min", "setting": "[24]", "result": 55, "unit": "mg/mL"}, {"measurement": "Qb10% 6 min", "setting": "[24]", "result": 74, "unit": "mg/mL"}, {"measurement": "Qb10% 2.4 min", "setting": "[25]", "result": 37, "unit": "mg/mL"}, {"measurement": "Qb10% 6 min", "setting": "[25]", "result": 66, "unit": "mg/mL"}, {"measurement": "Qb10% 2.4 min", "setting": "[26]", "result": 24.8, "unit": "mg/mL"}, {"measurement": "Qb10% 6 min", "setting": "[26]", "result": 55.6, "unit": "mg/mL"}, {"measurement": "Qb10% 2.4 min", "setting": "[27]", "result": "50.7 mg/mL and 51 mg/mL"}, {"measurement": "Qb10% 6 min", "setting": "[27]", "result": "70.1 mg/mL and 70 mg/mL"}, {"measurement": "Qb10% 2.4 min", "setting": "[28]", "result": "39.9 mg/mL and 40 mg/mL"}, {"measurement": "Qb10% 6 min", "setting": "[28]", "result": "63.8 mg/mL and 64 mg/mL"}, {"measurement": "Qb10% 2.4 min", "setting": "[29]", "result": 33.6, "unit": "mg/mL"}, {"measurement": "Qb10% 6 min", "setting": "[29]", "result": 50, "unit": "mg/mL"}, {"measurement": "Qb10% 2.4 min", "setting": "[30]", "result": 55, "unit": "mg/mL"}, {"measurement": "Qb10% 6 min", "setting": "[30]", "result": 73.8, "unit": "mg/mL"}, {"measurement": "Qb10% 2.4 min", "setting": "[31]", "result": 56, "unit": "mg/mL"}, {"measurement": "Qb10% 6 min", "setting": "[31]", "result": 64, "unit": "mg/mL"}, {"measurement": "Qb10% 2.4 min", "setting": "[32]", "result": 42, "unit": "mg/mL"}, {"measurement": "Qb10% 6 min", "setting": "[32]", "result": 57, "unit": "mg/mL"}, {"measurement": "Qb10% 2.4 min", "setting": "[33]", "result": 49, "unit": "mg/mL"}, {"measurement": "Qb10% 6 min", "setting": "[33]", "result": 62, "unit": "mg/mL"}, {"measurement": "Qb10% 2.4 min", "setting": "[34]", "result": 47, "unit": "mg/mL"}, {"measurement": "Qb10% 6 min", "setting": "[34]", "result": 56, "unit": "mg/mL"}, {"measurement": "Qb10% 2.4 min", "setting": "[35]", "result": 45, "unit": "mg/mL"}, {"measurement": "Qb10% 6 min", "setting": "[35]", "result": 51, "unit": "mg/mL"}, {"measurement": "Qb10% 2.4 min", "setting": "[36]", "result": 29.2, "unit": "mg/mL"}, {"measurement": "Qb10% 6 min", "setting": "[36]", "result": 48.7, "unit": "mg/mL"}, {"measurement": "Qb10%, 6 min, before incubation", "setting": "[37]", "result": 73, "unit": "mg/mL"}, {"measurement": "Qb10% 2.4 min", "setting": "[38]", "result": 42, "unit": "mg/mL"}, {"measurement": "Qb10% 6 min", "setting": "[38]", "result": 46, "unit": "mg/mL"}]}]}
